T1: EIN3 full-length protein (ETHYLENE-…3 transcription factor) (Arabidopsis, UniProt O24606 1-628)
T1 construct: Full-length EIN3 in the direct yeast two-hybrid tests, cloned in pAS2 or pACT2; In the immunoblots it is the endogenous or overexpressed EIN3 from plant extracts; also called At3g20770
T1 sequence: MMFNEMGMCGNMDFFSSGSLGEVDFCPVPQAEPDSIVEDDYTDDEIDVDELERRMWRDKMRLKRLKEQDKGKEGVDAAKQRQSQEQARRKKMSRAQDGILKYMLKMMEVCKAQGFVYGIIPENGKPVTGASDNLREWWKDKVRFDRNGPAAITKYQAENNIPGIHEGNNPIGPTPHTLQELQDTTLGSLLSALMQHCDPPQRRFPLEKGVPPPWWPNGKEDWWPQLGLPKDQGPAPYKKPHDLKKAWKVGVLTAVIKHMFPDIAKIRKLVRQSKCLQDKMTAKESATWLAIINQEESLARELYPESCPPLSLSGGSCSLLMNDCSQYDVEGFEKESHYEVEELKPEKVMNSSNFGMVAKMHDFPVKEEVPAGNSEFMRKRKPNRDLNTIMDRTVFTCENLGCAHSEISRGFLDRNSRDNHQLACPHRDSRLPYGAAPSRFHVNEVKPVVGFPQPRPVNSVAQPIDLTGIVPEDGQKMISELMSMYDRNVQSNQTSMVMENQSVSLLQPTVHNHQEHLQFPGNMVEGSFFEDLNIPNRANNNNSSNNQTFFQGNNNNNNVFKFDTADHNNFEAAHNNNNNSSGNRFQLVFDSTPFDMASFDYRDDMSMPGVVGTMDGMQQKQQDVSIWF

B1: EBF2 (EIN3-binding F-box protein 2) (other)
chain: MSGIFRFSGDEDCLLGGSMYLSPGSCPGVYYPARKRLRVAATSFYSGFEEKQTSIDVLPEECLFEILRRLPSGQERSACACVSKHWLNLLSSISRSEVNESSVQDVEEGEGFLSRSLEGKKATDLRLAAIAVGTSSRGGLGKLQIRGSGFESKVTDVGLGAVAHGCPSLRIVSLWNLPAVSDLGLSEIARSCPMIEKLDLSRCPGITDSGLVAIAENCVNLSDLTIDSCSGVGNEGLRAIARRCVNLRSISIRSCPRIGDQGVAFLLAQAGSYLTKVKLQMLNVSGLSLAVIGHYGAAVTDLVLHGLQGVNEKGFWVMGNAKGLKKLKSLSVMSCRGMTDVGLEAVGNGCPDLKHVSLNKCLLVSGKGLVALAKSALSLESLKLEECHRINQFGLMGFLMNCGSKLKAFSLANCLGISDFNSESSLPSPSCSSLRSLSIRCCPGFGDASLAFLGKFCHQLQDVELCGLNGVTDAGVRELLQSNNVGLVKVNLSECINVSDNTVSAISVCHGRTLESLNLDGCKNITNASLVAVAKNCYSVNDLDISNTLVSDHGIKALASSPNHLNLQVLSIGGCSSITDKSKACIQKLGRTLLGLNIQRCGRISSSTVDTLLENLWRCDILY
notes: In the yeast two-hybrid assays the cDNA was cloned into pAS2 or pACT2 (Clontech), so the protein was a fusion with the vector's domain; also called AAR27072.1
B2: ASK1, an Arabidopsis Skp1 protein (other, UniProt Q39255 1-160, looked up)
chain: MSAKKIVLKSSDGESFEVEEAVALESQTIAHMVEDDCVDNGVPLPNVTSKILAKVIEYCKRHVEAAASKAEAVEGAATSDDDLKAWDADFMKIDQATLFELILAANYLNIKNLLDLTCQTVADMIKGKTPEEIRTTFNIKNDFTPEEEEEVRRENQWAFE
notes: Yeast two-hybrid fusion in pAS2 or pACT2
B3: EBF1 (EIN3-binding F-box protein 1) (other)
chain: MSQIFSFAGENDFYRRGAIYPNPKDASLLLSLGSFADVYFPPSKRSRVVAPTIFSAFEKKPVSIDVLPDECLFEIFRRLSGPQERSACAFVSKQWLTLVSSIRQKEIDVPSKITEDGDDCEGCLSRSLDGKKATDVRLAAIAVGTAGRGGLGKLSIRGSNSAKVSDLGLRSIGRSCPSLGSLSLWNVSTITDNGLLEIAEGCAQLEKLELNRCSTITDKGLVAIAKSCPNLTELTLEACSRIGDEGLLAIARSCSKLKSVSIKNCPLVRDQGIASLLSNTTCSLAKLKLQMLNVTDVSLAVVGHYGLSITDLVLAGLSHVSEKGFWVMGNGVGLQKLNSLTITACQGVTDMGLESVGKGCPNMKKAIISKSPLLSDNGLVSFAKASLSLESLQLEECHRVTQFGFFGSLLNCGEKLKAFSLVNCLSIRDLTTGLPASSHCSALRSLSIRNCPGFGDANLAAIGKLCPQLEDIDLCGLKGITESGFLHLIQSSLVKINFSGCSNLTDRVISAITARNGWTLEVLNIDGCSNITDASLVSIAANCQILSDLDISKCAISDSGIQALASSDKLKLQILSVAGCSMVTDKSLPAIVGLGSTLLGLNLQQCRSISNSTVDFLVERLYKCDILS
notes: In the yeast two-hybrid assays the cDNA was cloned into pAS2 or pACT2 (Clontech), so the protein was a fusion with the vector's domain; also called FBL6; At2g25490

Assays:
[1] = target: T1, EIN3 full-length protein (ETHYLENE-…3 …); test: yeast two-hybrid (summary in Example 8)
Description: (§1) We then directly tested the possible interaction between EIN3 full-length protein and individual F-box proteins. Using genome-wide microarray experiments, we narrowed the search for EIN3-interacting F-box proteins by first testing those genes whose RNA levels were regulated by ethylene (Alonso et al., Science 301, 653-657, 2003; H. G. and J. R. E., unpublished data). From this gene list, two closely related candidate F-box proteins were identified which were able to interact with EIN3 in yeast two-hybrid assays (FIGS. 4C and 4E). We designated these two F-box proteins as EBF1 and EBF2 (for EIN3-binding F-box protein 1 and 2). EBF1 was previously named as FBL6 with no function assigned (Xiao and Jang, 2000). These two proteins share 57% identity in amino acid sequence (FIG. 4A), and each contains a well-conserved F-box motif in the amino-terminus and 18 tandem leucine-rich repeats (LRRs) in the carboxyl terminus (FIGS. 4A and 4B). Because LRR domains in several F-box proteins contribute to the substrate binding (Gagne et al., Proc Natl Acad Sci 99, 11519-11524, 2002), we tested whether the C-terminal LRR domains in EBF1 and EBF2 were sufficient for EIN3 interaction. […]

[2] = target: B1; test: yeast two-hybrid
Description: as §1

[3] = target: B3; test: yeast two-hybrid
Description: as §1

[4] = target: T1, EIN3 full-length protein (ETHYLENE-…3 …); test: yeast two-hybrid, filter-lift beta-galactosidase
Description: as §1

Binder: B1
binding result [1]: binds

Binder: B2
binding result [2]: binds
binding result [3]: binds

Binder: B3
binding result [4]: binds

Source: patent US20110131688A1 (SALK INSTITUTE FOR BIOLOGICAL STUDIES, published 2011)
